Sequences and labels used below:
B1: SmBiT-MYC 1-190 [human] / TRRAP 2033-2283-LgBiT [not stated] (parent complex)
chain 1: MPLNVSFTNRNYDLDYDSVQPYFYCDEEENFYQQQQQSELQPPAPSEDIWKKFELLPTPPLSPSRRSGLCSPSYVAVTPFSLRGDNDGGGGSFSTADQLEMVTELLGGDMVNQSFICDPDDETFIKNIIIQDCMWSGFSAAAKLVSEKLASYQAARKDSGSPNPARGHSVCSTSSLYLQDLSAAASECID
chain 2: NSSGEGVNSVSSSIKRGLSVDSAQEVKRFRTATGAISAVFGRSQSLPGADSLLAKPIDKQHTDTVVNFLIRVACQVNDNTNTAGSPGEVLSRRCVNLLKTALRPDMWPKSELKLQWFDKLLMTVEQPNQVNYGNICTGLEVLSFLLTVLQSPAILSSFKPLQRGIAACMTCGNTKVLRAVHSLLSRLMSIFPTEPSTSSVASKYEELECLYAAVGKVIYEGLTNYEKATNANPSQLFGTLMILKSACSNNP

Variants of B1 are the subject of the experiment. The experiment is described as follows: luminescence complementation (NanoBiT) in transfected cells; normalized for MYC expression level; parent: 100; read off a plot.
As to chain 1 W135A, the percent of parent was ~35 % RLU to WT.
Next, chain 1 S136A: ~77 % RLU to WT; chain 1 M134A: ~43 % RLU to WT.
For chain 1 F138A, the percent of parent is ~24 % RLU to WT.
Next, chain 1 T58I: ~102 % RLU to WT.

The values above are taken from paper PMC8522838 (2021).
